# Patent US20260207704A1, “STAPLED PEPTIDES AND METHODS THEREOF” (priority 2022, published 2026)
# *1 amine or outer side, *2 acyl side, *3 side chain or, on linkers, in order; H or OH if unused. Bridges are numbered along the chain shown (N, C = ends). Primed or numbered codes have the meaning given here. [ ]: non-standard residue; d: D form. B5(4) = 2-amino-2-(pent-4-en-1-yl)hept-6-enoic acid, stapled through each of its two olefin groups with other olefin-containing amino acid residues, O=C(C(CCCC=[*:3])(CCCC=[*:4])N[*:1])[*:2]; PyrS2″ = (S)-3-amino-1-((pent-4-en-1-yloxy)carbonyl)pyrrolidine-3-carboxylic acid (olefin stapling residue), C=CCCCOC(=O)N1CC[C@@](N[*:1])(C(=O)[*:2])C1; PyrS2(3) = (S)-3-amino-1-((pent-4-en-1-yloxy)carbonyl)pyrrolidine-3-carboxylic acid, olefin residue, C=CCCCOC(=O)N1CC[C@@](N[*:1])(C(=O)[*:2])C1; PyrS2(5) = (S)-3-amino-1-((pent-4-en-1-yloxy)carbonyl)pyrrolidine-3-carboxylic acid, C=CCCCOC(=O)N1CC[C@@](N[*:1])(C(=O)[*:2])C1; B5″ = 2-amino-2-(pent-4-en-1-yl)hept-6-enoic acid (bis-olefin stapling residue), C=CCCCC(CCCC=C)(N[*:1])C(=O)[*:2]; B5(3) = 2-amino-2-(pent-4-en-1-yl)hept-6-enoic acid, two olefin arms, C=CCCCC(CCCC=C)(N[*:1])C(=O)[*:2]; 2F3MeF(3) = aromatic amino acid residue, Cc1cccc(C[C@H](N[*:1])C(=O)[*:2])c1F; 2F3MeF″ = aromatic residue, Cc1cccc(C[C@H](N[*:1])C(=O)[*:2])c1F; Phe(3-COOH) = N[C@@H](Cc1cccc(C(=O)O)c1)C(=O)O; 2F3MeF = Cc1cccc(C[C@H](N[*:1])C(=O)[*:2])c1F; Bta = N[C@@H](Cc1csc2ccccc12)C(=O)O; αAllylPro = C=CC[C@@]1(C(=O)O)CCCN1; BztA = aromatic amino acid residue; tBuAla = CC(C)(C)C[C@H](N)C(=O)O; 3Thi = N[C@@H](Cc1ccsc1)C(=O)O; Cha = N[C@@H](CC1CCCCC1)C(=O)O; PyrS2(4) = not defined here; Nle = CCCC[C@H](N)C(=O)O; TfeGA = not defined here; GlnR = not defined here; PL3 = not defined here; B5 = not defined here; Aib = CC(C)(N)C(=O)O
# B1: I-68 (peptide)
# peptide: Ac-[αAllylPro]D[tBuAla][B5(3)]D[Phe(3-COOH)][Aib]AFK[PyrS2(3)][2F3MeF″][Bta][GlnR]A-NH2
# modifications: bridge 10-14; not fully specified (bridges); printed as Ac-PL3-Asp-Npg-B5-Asp-3COOHF-Aib-Ala-Phe-Lys*3-PyrS2-2F3MeF-BztA-GlnR*3-Ala-NH2; reading uncertain
# B2: I-71 (peptide)
# peptide: Ac-[αAllylPro]D[tBuAla][B5(3)]D[Phe(3-COOH)][Nle]AFK[PyrS2(3)][2F3MeF″][Bta][GlnR]A-NH2
# modifications: bridge 10-14; not fully specified (bridges); printed as Ac-PL3-Asp-Npg-B5-Asp-3COOHF-nLeu-Ala-Phe-Lys*3-PyrS2-2F3MeF-BztA-GlnR*3-Ala-NH2; reading uncertain
# B3: I-72 (peptide)
# peptide: Ac-[αAllylPro]D[tBuAla][B5(3)]D[Phe(3-COOH)]TAFK[PyrS2(3)][3Thi][Bta][GlnR]A-NH2
# modifications: bridge 10-14; not fully specified (bridges); printed as Ac-PL3-Asp-Npg-B5-Asp-3COOHF-Thr-Ala-Phe-Lys*3-PyrS2-3Thi-BztA-GlnR*3-Ala-NH2; reading uncertain
# B4: I-73 (peptide)
# peptide: XDXXDXTAFKXXXQA
# modifications: not fully specified; Ac-PL3-Asp-Npg-B5-Asp-3COOHF-Thr-Ala-Phe-Lys*3-PyrS2-2F3MeF-BztA-GlnR*3-Ala-NH2
# B5: I-97 (peptide)
# peptide: Ac-[PL3]D[Cha][B5]D[Phe(3-COOH)]AAFK[PyrS2″][2F3MeF(3)][BztA][GlnR]A-NH2
# modifications: staple 1-4 (inferred); bridge 10-14; not fully specified (residue 10, bridges); printed as Ac-PL3-Asp-Cha-B5-Asp-3COOHF-Ala-Ala-Phe-Lys*3-PyrS2-2F3MeF-BztA-GlnR*3-Ala-NH2; reading uncertain; also: Lys10 and GlnR14 marked *3
# B6: I-101 (peptide)
# peptide: Ac-[PL3]D[tBuAla][B5]D[Phe(3-COOH)][Cha]AFK[PyrS2(4)][2F3MeF][Bta][GlnR]A-NH2
# modifications: staple 1-4; bridge 10-14; not fully specified (residue 10); printed as Ac-PL3-Asp-Npg-B5-Asp-3COOHF-Cha-Ala-Phe-Lys*3-PyrS2-2F3MeF-BztA-GlnR*3-Ala-NH2; reading uncertain; also: PyrS2 tied into a staple, partner not placed
# B7: I-1 (peptide)
# peptide: Ac-[PL3]DL[B5]DDAAFK[PyrS2(4)][3Thi][Bta][GlnR]-NH2
# modifications: staple 1-4; bridge 10-14; not fully specified (residue 10); printed as Ac-PL3-Asp-Leu-B5-Asp-Asp-Ala-Ala-Phe-dLys*3-PyrS2-3Thi-BztA-GlnR*3-NH2; reading uncertain; also: PyrS2 tied into a staple, partner not placed
# B8: I-104 (peptide)
# peptide: Ac-[PL3]D[tBuAla][B5]D[Phe(3-COOH)]AAFK[PyrS2(4)][2F3MeF][Bta][GlnR]L-NH2
# modifications: staple 1-4; bridge 10-14; not fully specified (residue 10); printed as Ac-PL3-Asp-Npg-B5-Asp-3COOHF-Ala-Ala-Phe-Lys*3-PyrS2-2F3MeF-BztA-GlnR*3-Leu-NH2; reading uncertain; also: PyrS2 tied into a staple, partner not placed
# B9: I-106 (peptide)
# peptide: Ac-[PL3]D[Cha][B5]D[Phe(3-COOH)]AAFK[PyrS2(4)][2F3MeF][Bta][GlnR]L-NH2
# modifications: staple 1-4; bridge 10-14; not fully specified (residue 10); printed as Ac-PL3-Asp-Cha-B5-Asp-3COOHF-Ala-Ala-Phe-Lys*3-PyrS2-2F3MeF-BztA-GlnR*3-Leu-NH2; reading uncertain; also: PyrS2 tied into a staple, partner not placed
# B10: I-120 (peptide)
# peptide: Ac-[αAllylPro]D[tBuAla][B5″]D[TfeGA][Aib]AFK[PyrS2″][2F3MeF][Bta][GlnR]A-NH2
# modifications: bridge 10-14; not fully specified (bridges); reading uncertain; also: Lys*3 and GlnR*3 marked *3
# B11: I-121 (peptide)
# peptide: Ac-[αAllylPro]D[tBuAla][B5(4)]D[TfeGA][Aib]AFK[PyrS2(5)][2F3MeF][Bta][GlnR]A-NH2
# modifications: bridge 10-14; not fully specified (bridges); reading uncertain; also: Lys*3 and GlnR*3 marked *3
# System: DLD1 reporter
# Assay: reporter assay (DLD1 reporter assay)
# Format: cell-based
# Conditions: read-out: DLD1 4% Abs IC50; DLD1 4%
# Description: Various technologies can be utilized for characterizing and/or assessing provided technologies (e.g., agents (e.g., various peptides), compositions, methods, etc.) in accordance with the present disclosure. As described herein, in some embodiments, a useful technology is or comprises fluorescence polarization. In some embodiments, a useful technology assesses LogP or LogD. In some embodiments, a useful technology is or comprises a CHI LogD assay. In some embodiments, a useful technology assesses solubility. In some embodiments, a useful technology is or comprises NanoBRET. In some embodiments, a useful technology is or comprises a reporter assay (e.g., DLD1 reporter assay). In some embodiments, a useful technology is or comprises alphascreen. Certain useful protocols are described in the Examples. Those skilled in the art appreciate that suitable adjustments may be made to such protocols, e.g., according to specific conditions, agents, purposes, etc.
# Various technologies can be utilized to assess technologies of the present disclosure. For example, in some embodiments, solubility, LogD, interactions with targets, etc. of various agents such as stapled peptides were assessed using technologies described in WO 2022/261257 (e.g., those in its Examples). In some embodiments, solubility, shake flask LogD, and binding to beta-catenin were assessed. In some embodiments, an assay for assessing interactions, e.g., with beta-catenin, was fluorescence polarization as described in WO 2022/261257. In some embodiments, an assay was Nano-BRET target engagement assay that assessed beta-catenin/TCF4 engagement as described in WO 2022/261257. In some embodiments, an assay was a reporter assay as reported in Example 4 of WO 2022/261257. In some embodiments, an assay was a COLO320DM proliferation assay as reported in Example 4 of WO 2022/261257.
row,Molecule,IC50
1,"CC(=O)N1CCC[C@]12CC=CCCCC1(CCCC=CCCCOC(=O)N3CC[C@@]4(C3)NC(=O)[C@H](CCCCNC(=O)CC[C@@H](C(=O)N[C@@H](CC(C)C)C(=O)N[C@@H](CO)C(N)=O)NC(=O)[C@H](Cc3csc5ccccc35)NC(=O)[C@H](Cc3ccccc3C(F)(F)F)NC4=O)NC(=O)[C@H](Cc3ccccc3)NC(=O)[C@H](C)NC(=O)[C@H](C)NC(=O)[C@H](Cc3cccc(C(=O)O)c3)NC(=O)[C@H](CC(=O)O)NC1=O)NC(=O)[C@H](CC(C)(C)C)NC(=O)[C@H](CC(N)=O)NC2=O (relative stereo) [I-142, Ac-PL3-Asn-Npg-B5-Asp-3COOHF-Ala-Ala-Phe-Lys*3-PyrS2-2F3MeF-BztA-GlnR*3-Leu-Ser-NH2]",> 5000 nM
2,"CC(=O)N1CCC[C@]12CC=CCCCC1(CCCC=CCCCOC(=O)N3CC[C@@]4(C3)NC(=O)[C@H](CCCCNC(=O)CC[C@@H](C(=O)N[C@@H](C)C(N)=O)NC(=O)[C@H](Cc3csc5ccccc35)NC(=O)[C@H](Cc3ccccc3C(F)(F)F)NC4=O)NC(=O)[C@H](Cc3ccccc3)NC(=O)[C@H](C)NC(=O)[C@H](C(C)C)NC(=O)[C@H](CN(CC(=O)O)CC(F)(F)F)NC(=O)[C@H](CC(=O)O)NC1=O)NC(=O)[C@H](CC(C)(C)C)NC(=O)[C@H](CC(=O)O)NC2=O (single isomer, unassigned) [I-125, Ac-PL3-Asp-Npg-B5-Asp-TfeGA-Val-Ala-Phe-Lys*3-PyrS2-2F3MeF-BztA-GlnR*3-Ala-NH2]",1000 to 5000 nM
3,"CC(=O)N1CCC[C@]12CC=CCCCC1(CCCC=CCCCOC(=O)N3CC[C@@]4(C3)NC(=O)[C@H](CCCCNC(=O)CC[C@@H](C(=O)N[C@@H](C)C(N)=O)NC(=O)[C@H](Cc3csc5ccccc35)NC(=O)[C@H](Cc3ccccc3C(F)(F)F)NC4=O)NC(=O)[C@H](Cc3ccccc3)NC(=O)[C@H](C)NC(=O)C(C)(C)NC(=O)[C@H](CN(CC(=O)O)CC(F)(F)F)NC(=O)[C@H](CC(=O)O)NC1=O)NC(=O)[C@H](CC(C)(C)C)NC(=O)[C@H](CC(=O)O)NC2=O (single isomer, unassigned) [I-121, Ac-PL3-Asp-Npg-B5-Asp-TfeGA-Aib-Ala-Phe-Lys*3-PyrS2-2F3MeF-BztA-GlnR*3-Ala-NH2]",1000 to 5000 nM
4,"CC(=O)N1CCC[C@]12CC=CCCCC1(CCCC=CCCCOC(=O)N3CC[C@@]4(C3)NC(=O)[C@H](CCCCNC(=O)CC[C@@H](C(=O)N[C@@H](CC(C)C)C(N)=O)NC(=O)[C@H](Cc3csc5ccccc35)NC(=O)[C@H](Cc3ccccc3C(F)(F)F)NC4=O)NC(=O)[C@H](Cc3ccccc3)NC(=O)[C@H](C)NC(=O)[C@H](CC(C)(C)C)NC(=O)[C@H](Cc3cccc(C(=O)O)c3)NC(=O)[C@H](CC(=O)O)NC1=O)NC(=O)[C@H](CC(C)(C)C)NC(=O)[C@H](CC(=O)O)NC2=O (single isomer, unassigned) [I-109, Ac-PL3-Asp-Npg-B5-Asp-3COOHF-Npg-Ala-Phe-Lys*3-PyrS2-2F3MeF-BztA-GlnR*3-Leu-NH2]",1000 to 5000 nM

# Same assay, conditions: read-out: DLD1 4% Abs IC50; DLD1 reporter, 4%
row,Molecule,IC50
1,"CC(=O)N1CCC[C@]12CC=CCCCC1(CCCC=CCCCOC(=O)N3CC[C@@]4(C3)NC(=O)[C@H](CCCCn3cc(nn3)C[C@@H](C(=O)N[C@@H](C)C(N)=O)NC(=O)[C@H](Cc3csc5ccccc35)NC(=O)[C@H](Cc3ccsc3)NC4=O)NC(=O)[C@H](Cc3ccccc3)NC(=O)[C@H](C)NC(=O)[C@H](C)NC(=O)[C@H](Cc3cccc(C(=O)O)c3)NC(=O)[C@H](CC(=O)O)NC1=O)NC(=O)[C@H](CC(C)(C)C)NC(=O)[C@H](CC(=O)O)NC2=O (stereo partly drawn) [I-337, Ac-PL3-Asp-Npg-B5-Asp-3COOHF-Ala-Ala-Phe-TriAzLys*3-PyrS2-3Thi-BztA-sAla*3-Ala-NH2]",≤ 1000 nM

# Molecular target: beta-catenin (human)
# Assay: cell-based or functional assay
# Conditions: not given
# beta-catenin (human), sequence (B6V8E6 146-665 limits assumed): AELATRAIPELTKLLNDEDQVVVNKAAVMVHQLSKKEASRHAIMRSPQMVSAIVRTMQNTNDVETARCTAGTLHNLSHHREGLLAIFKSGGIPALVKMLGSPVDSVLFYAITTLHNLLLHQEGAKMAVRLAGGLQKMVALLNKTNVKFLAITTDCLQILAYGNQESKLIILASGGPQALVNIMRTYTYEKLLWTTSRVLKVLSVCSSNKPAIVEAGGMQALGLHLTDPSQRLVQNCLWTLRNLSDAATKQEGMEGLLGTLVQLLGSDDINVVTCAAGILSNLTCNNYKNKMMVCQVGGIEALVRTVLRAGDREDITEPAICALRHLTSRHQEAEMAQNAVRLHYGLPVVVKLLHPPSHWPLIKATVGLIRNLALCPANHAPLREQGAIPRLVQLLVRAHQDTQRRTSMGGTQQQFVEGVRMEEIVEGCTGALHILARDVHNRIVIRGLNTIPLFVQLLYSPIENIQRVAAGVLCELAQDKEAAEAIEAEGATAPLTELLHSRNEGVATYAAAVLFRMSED
Molecule,NanoBRET Abs IC50 (bin >1.5 uM),NanoBRET Abs IC50
B1,< 3 µM,
B2,< 3 µM,
B3,< 3 µM,
B4,< 3 µM,
B5,< 3 µM,
B6,< 3 µM,
B7,,> 10 µM
B8,< 3 µM,
B9,< 3 µM,
B10,< 3 µM,
B11,< 3 µM,

# Molecular target: beta-catenin (human)
# Assay: fluorescence polarization
# Conditions: not given
row,Molecule,IC50
1,B1,< 50 nM
2,B2,< 50 nM
3,B3,< 50 nM
4,B4,< 50 nM
5,B5,< 50 nM
6,B6,< 50 nM
7,B7,< 50 nM
8,B8,< 50 nM
9,B9,< 50 nM
10,B10,< 50 nM
11,B11,< 50 nM
